Where a chain is given by its changes, count along the chain named. Blank lines part the entries; values can stand above or below the binder they belong to.
Assays:
[1] = target: T1, native human MET on living human cells (human, UniProt P08581 25-1390); experiment: cell-based or functional assay
[2] = target: T2, native mouse MET on living mouse cells (mouse, UniProt P16056 25-1379); experiment: cell-based or functional assay
[3] = target: T1, native human MET on living human cells; experiment: cell-based or functional assay; remark: listed apart in the source
[4] = target: T2, native mouse MET on living mouse cells; experiment: cell-based or functional assay; remark: listed apart in the source
[5] = target: T1, native human MET on living human cells; experiment: flow cytometry, A549 cells
Description: (§1) We also analysed whether chimeric anti-MET antibodies bound to native human and mouse MET in living cells. […] Antibody binding to cells was analysed by flow cytometry using phycoerythrin-conjugated anti-human IgG1 antibodies (eBioscience) and a CyAn ADP analyser (Beckman Coulter). As a positive control for human MET binding, we used a commercial mouse anti-human MET antibody (R&D Systems) and phycoerythrin-conjugated anti-mouse IgG1 antibodies (eBioscience). As a positive control for mouse MET binding we used a commercial goat anti-mouse MET antibody (R&D Systems) and phycoerythrin-conjugated anti-goat IgG1 antibodies (eBioscience). […] Consistent with the data obtained in ELISA, maximal binding (EMAX) varied depending on antibody, but was similar in human and mouse cells.

[6] = target: T2, native mouse MET on living mouse cells; experiment: flow cytometry, MLP29 cells
Description: as §1

[7] = target: human MET ECD mutant A (mutations 1, 2, 3) (human) (UniProt P08581); experiment: ELISA, MET ECD mutant in solid phase, mAb 0-50 nM
[8] = target: human MET ECD mutant D (mutations 1, 2) (human) (UniProt P08581); experiment: ELISA, MET ECD mutant in solid phase, mAb 0-50 nM
[9] = target: human MET ECD mutant E (mutations 2, 3, 4) (human) (UniProt P08581); experiment: ELISA, MET ECD mutant in solid phase, mAb 0-50 nM
[10] = target: human MET ECD mutant H (mutations 2, 4) (human) (UniProt P08581); experiment: ELISA, MET ECD mutant in solid phase, mAb 0-50 nM
[11] = target: T3, human MET extracellular domain (ECD) (human, UniProt P08581 25-932); experiment: ELISA, MET ECD in solid phase, mAb 0-50 nM
T3 construct: range 1-932; recombinant ECD; also called hMET; human MET ECD
Description: Using human MET as a template, we mutagenized each of these residues in different permutations, generating a series of MET mutants that are fully human except for specific residues, which are llama. Next, we tested the affinity of selected SEMA-binding mAbs (71D6, 71C3, 71D4, 71A3, 71G2) and PSI-binding mAbs (76H10 and 71G3) for these MET mutants by ELISA. To this end, the various MET proteins were immobilized in solid phase (100 ng/well in a 96-well plate) and then exposed to increasing concentrations of antibodies (0-50 nM) solution. […] Wild-type human MET was used as positive control.
TABLE 18 The epitopes of MET responsible for agonistic antibody binding represent residues conserved among H. sapiens, M. musculus, R. norvegicus, M. fascicularis but not among the same species and L. glama. The relevance of residues conserved among human, mouse, rat, cynomolgus monkey but not llama MET for binding to agonistic mAbs was tested by ELISA. Wild-type (WT) or mutant (MT) human MET ECD was immobilized in solid phase and exposed to increasing concentrations of mAbs in solution. […] All binding values were normalized to the WT protein and are expressed as % binding (EMAX) compared to WT MET.

[12] = target: T4, human MET-Fc chimeric protein (R&D Systems) (human, UniProt P08581 25-932); experiment: competition ELISA, hMET-Fc in solid phase, competitor 0.3 nM biotinylated hHGF
T4 construct: extracellular domain; bought (R&D Systems); also called hMET; not shown: Fc portion of human IgG1
Description: (§2) To investigate along this line, we tested the competition between mAbs and HGF by ELISA. Recombinant human and mouse HGF (R&D Systems) were biotinylated at the N-terminus using NHS-LC-biotin (Thermo Scientific). MET-Fc protein, either human or mouse (R&D Systems), was immobilized in solid phase and then exposed to 0.3 nM biotinylated HGF, either human or mouse, in the presence of increasing concentrations of antibodies (0-120 nM).
(§3) A MET-Fc chimeric protein (either human or mouse) was immobilized in solid phase and exposed to a fixed concentration of biotinylated HGF (either human or mouse), in the presence of increasing concentrations of antibodies. […] Antibody-HGF competition is expressed as IC₅₀ (the concentration that achieves 50% competition) and IMAX (the maximum % competition reached at saturation).

[13] = target: T5, mouse MET-Fc chimeric protein (R&D Systems) (mouse, UniProt P16056 25-929, limits assumed); experiment: competition ELISA, mMET-Fc in solid phase, competitor 0.3 nM biotinylated mHGF
T5 construct: bought (R&D Systems); also called mMET; not shown: Fc
Description: as §2, §3

- cell scattering score, HPAF-II, 0.001 nM [1]: 0 score 0-4
- cell scattering score, HPAF-II, 0.004 nM [1]: 0 score 0-4
- cell scattering score, HPAF-II, 0.012 nM [1]: 0 score 0-4
- cell scattering score, HPAF-II, 0.037 nM [1]: 0 score 0-4
- cell scattering score, HPAF-II, 0.111 nM [1]: 0 score 0-4
- cell scattering score, HPAF-II, 0.333 nM [1]: 0 score 0-4
- cell scattering score, HPAF-II, 1.000 nM [1]: 1 score 0-4
- cell scattering score, HPAF-II, 3.000 nM [1]: 2 score 0-4
- cell scattering score, HPAF-II, 9.000 nM [1]: 2 score 0-4
- cell scattering score, MLP29, 0.001 nM [2]: 0 score 0-4
- cell scattering score, MLP29, 0.004 nM [2]: 0 score 0-4
- cell scattering score, MLP29, 0.012 nM [2]: 0 score 0-4
- cell scattering score, MLP29, 0.037 nM [2]: 0 score 0-4
- cell scattering score, MLP29, 0.111 nM [2]: 0 score 0-4
- cell scattering score, MLP29, 0.333 nM [2]: 0 score 0-4
- cell scattering score, MLP29, 1.000 nM [2]: 1 score 0-4
- cell scattering score, MLP29, 3.000 nM [2]: 2 score 0-4
- cell scattering score, MLP29, 9.000 nM [2]: 2 score 0-4
- EMAX (% relative to control) [5]: 107%
- EMAX (% relative to control) [6]: 94.8%
- % binding (EMAX) compared to WT MET [7]: 114%
- % binding (EMAX) compared to WT MET [8]: 120%
- % binding (EMAX) compared to WT MET [9]: 57.2%
- % binding (EMAX) compared to WT MET [10]: 58.7%
- % binding (EMAX) compared to WT MET [11]: 100%
- IMAX (maximum % competition) [12]: 95.6%
- IMAX (maximum % competition) [13]: 91.3%
B1: chimeric llama-human IgG1 mAb 71D4 (antibody, V domains shown)
VH: ELQLVESGGGLVQPGGSLRLSCAASGFTFSGYGMSWVRQAPGKGLEWVSDINSGGGSTSYADSVKGRFTISRDNAKNTLYLQMNSLKPEDTAVYYCAKDMRLYLARYNDYEAWDYWGQGTQVTVSS
VL: SSALTQPSALSVTLGQTAKITCQGGSLGSSYAHWYQQKPGQAPVLVIYDDDSRPSGIPERFSGSSSGGTATLTISGAQAEDEGDYYCQSADSSGNAAVFGGGTHLTVL
- protection from staurosporine, viability EC50, MCF10A [3]: 30.2 nM
- protection from staurosporine, viability EMAX, MCF10A [3]: 51.7%
- protection from staurosporine, viability EC50, MLP29 [4]: 29.8 nM
- protection from staurosporine, viability EMAX, MLP29 [4]: 52.1%

- cell scattering score, HPAF-II, 0.001 nM [1]: 0 score 0-4
- cell scattering score, HPAF-II, 0.004 nM [1]: 0 score 0-4
- cell scattering score, HPAF-II, 0.012 nM [1]: 2 score 0-4
- cell scattering score, HPAF-II, 0.037 nM [1]: 3 score 0-4
- cell scattering score, HPAF-II, 0.111 nM [1]: 3 score 0-4
- cell scattering score, HPAF-II, 0.333 nM [1]: 4 score 0-4
- cell scattering score, HPAF-II, 1.000 nM [1]: 4 score 0-4
- cell scattering score, HPAF-II, 3.000 nM [1]: 4 score 0-4
- cell scattering score, HPAF-II, 9.000 nM [1]: 4 score 0-4
- cell scattering score, MLP29, 0.001 nM [2]: 0 score 0-4
- cell scattering score, MLP29, 0.004 nM [2]: 0 score 0-4
- cell scattering score, MLP29, 0.012 nM [2]: 2 score 0-4
- cell scattering score, MLP29, 0.037 nM [2]: 3 score 0-4
- cell scattering score, MLP29, 0.111 nM [2]: 3 score 0-4
- cell scattering score, MLP29, 0.333 nM [2]: 4 score 0-4
- cell scattering score, MLP29, 1.000 nM [2]: 4 score 0-4
- cell scattering score, MLP29, 3.000 nM [2]: 4 score 0-4
- cell scattering score, MLP29, 9.000 nM [2]: 4 score 0-4
- EMAX (% relative to control) [5]: 161%
- EMAX (% relative to control) [6]: 144%
- % binding (EMAX) compared to WT MET [7]: 117%
- % binding (EMAX) compared to WT MET [8]: 128%
- % binding (EMAX) compared to WT MET [9]: 65.4%
- % binding (EMAX) compared to WT MET [10]: 76.7%
- % binding (EMAX) compared to WT MET [11]: 100%
- IMAX (maximum % competition) [12]: 93.4%
- IMAX (maximum % competition) [13]: 87.7%
B2: chimeric llama-human IgG1 mAb 71A3 (antibody, V domains shown)
VH: EVQLVESGGGLVQPGGSLRLSCAASGFSFKDYDITWVRQAPGKGLEWVSTITSRSGSTSYVDSVKGRFTISGDNAKNTLYLQMNSLKPEDTAVYYCAKVYATTWDVGPLGYGMDYWGKGTLVTVSS
VL: B1 VL with S2Y, A3E
- protection from staurosporine, viability EC50, MCF10A [3]: < 0.5 nM
- protection from staurosporine, viability EMAX, MCF10A [3]: 71.7%
- protection from staurosporine, viability EC50, MLP29 [4]: < 0.5 nM
- protection from staurosporine, viability EMAX, MLP29 [4]: 70.5%
